Measurements: patent publication US20090162360A1 (Hoffmann-La Roche, published 2009)

T1: human ANGPT2 (R&D Systems) (human, UniProt O15123 19-496, limits assumed)
T1 construct: also called hANGPT2; Ang-2
T1 sequence (looked up): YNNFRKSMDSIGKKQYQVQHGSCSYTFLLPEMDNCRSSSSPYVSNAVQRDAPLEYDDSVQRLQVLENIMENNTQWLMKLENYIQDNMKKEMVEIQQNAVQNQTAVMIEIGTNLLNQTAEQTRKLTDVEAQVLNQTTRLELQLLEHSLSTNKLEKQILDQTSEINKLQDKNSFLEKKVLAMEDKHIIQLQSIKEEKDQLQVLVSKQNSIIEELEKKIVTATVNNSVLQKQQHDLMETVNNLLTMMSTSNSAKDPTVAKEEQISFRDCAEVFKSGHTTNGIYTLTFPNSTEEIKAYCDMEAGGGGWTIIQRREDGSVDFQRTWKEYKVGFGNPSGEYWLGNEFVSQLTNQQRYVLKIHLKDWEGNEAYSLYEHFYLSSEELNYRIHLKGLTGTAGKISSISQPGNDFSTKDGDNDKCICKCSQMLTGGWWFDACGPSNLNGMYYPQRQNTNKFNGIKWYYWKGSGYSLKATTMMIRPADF


Experiments:
[1] = target: T2, recombinant human IGF-1R on I24 cells (human, UniProt P08069 31-1367); assay: cellular FACS IGF-1R-ANGPT2 bridging assay on I24 cells with 2 µg/mL hANGPT2, detection <ANGPT2>mIgG1-Biotin + Streptavidin-PE
T2 construct: whole, on cells; also called IGF-1R in I24 cells; I24 IGF-1R expressing cells (NIH3T3 cells expressing recombinant human IGF-1R)
Description: (§1) The assay principle is depicted in FIG. 10.
(§2) Briefly, 5×10E5 I24 cells per FACS tube were incubated with total purified antibody mix and incubated on ice for 1 h (titration 160 μg/ml mix). The respective purified antibodies wildtype <IGF-1R> and <ANGPT2> were applied to the I24 cells as controls. Unbound antibody was washed away with 4 ml ice cold PBS (Gibco)+2% FCS (Gibco), cells were centrifuged (5 min at 400 g) and bound bispecific antibody was detected with 50 μl 2 μg/mL human ANGPT2 (R&D Systems) for 1 h on ice. Subsequently, unbound ANGPT2 was washed away once or twice with 4 ml ice cold PBS (Gibco)+2% FCS (Gibco), cells were centrifuged (5 min at 400 g) and bound ANGPT2 was detected with 50 μl 5 μg/mL <ANGPT2>mIgG1-Biotin antibody (BAM0981, R&D Systems) for 45 min on ice; alternatively, cells were incubated with 50 μl 5 μg/mL mIgG1-Biotin-Isotype control (R&D Systems). Unbound detection antibody was washed away with 4 ml ice cold PBS (Gibco)+2% FCS (Gibco), cells were centrifuged (5 min at 400 g) and bound detection antibody was detected with 50 μl 1:400 Streptavidin-PE conjugate (Invitrogen/Zymed) for 45 min on ice protected from light. Unbound Streptavidin-PE conjugate was washed away with 4 ml ice cold PBS+2% FCS. […]

[2] = target: T1, human ANGPT2 (R&D Systems); assay: as above
Description: as §1, §2

Row | Binder | binding result [1] | binding result [2]
1 | monospecific, bivalent <ANGPT2> wildtype antibody (antibody, V domains shown, Human IgG1/kappa antibody described in WO 2006/045049; also called wildtype <ANGPT2> antibody; <Ang-2> control antibody) VH: EVQLVQSGGGVVQPGRSLRLSCAASGFTFSSYGMHWVRQAPGKGLEWVSYISSSGSTIYYADSVKGRFTISRDNAKNSLYLQMNSLRAEDTAVYYCARDLLDYDILTGYGYWGQGTLVTVSS VL: not shown | no binding | 
2 | wildtype <IGF-1R> antibody (antibody, V domains shown, Human IgG1/kappa antibody described in WO 2005/005635; also called <IGF-1R> wildtype antibody; original wildtype <IGF-1R> antibody) VH: QVELVESGGGVVQPGRSQRLSCAASGFTFSSYGMHWVRQAPGKGLEWVAIIWFDGSSTYYADSVRGRFTISRDNSKNTLYLQMNSLRAEDTAVYFCARELGRRYFDLWGRGTLVSVSS VL: EIVLTQSPATLSLSPGERATLSCRASQSVSSYLAWYQQKPGQAPRLLIYDASKRATGIPARFSGSGSGTDFTLTISSLEPEDFAVYYCQQRSKWPPWTFGQGTKVESKR |  | no binding
